Values quoted from earlier work in patent US12544428B2, “Controlled-release CNP agonists with reduced side-effects” (ASCENDIS PHARMA GROWTH DISORDERS A/S, priority 2016, dated 2026).
Bridge positions count the residues as written; N and C are the ends. Ends that are not written are not given here.

Conditions: Phase 1 study, healthy volunteers; cited from earlier work

BMN-111: a CNP variant with increased NEP resistance in development for the treatment of achondroplasia (PGQEHPNARKYKGANKKGLSKGCFGLKLDRIGSMSGLGC; disulfide 23-39; chains of the INN, looked up)
hypotension: mild hypotension
